Measurements taken from publication PMC4558601, “Architecture of the Synaptophysin/Synaptobrevin Complex: Structural Evidence for an Entropic Clustering Function at the Synapse” (Scientific Reports, 2015).

Biological target: the molecule itself
Experiment: SEC + other: SDS-PAGE densitometry and western blot of the co-purified native complex; native SYP/VAMP2 complex purified from calf brain synaptic vesicles in high cholesterol; Sephacryl S-300 in 20 mM NaH2PO4 pH 6.8, 0.2% Brij-35, 0.1% cholesterol, 40 mM sucrose; fractions analysed by SDS-PAGE, silver stain, western blot, densitometry

B1: synaptophysin (SYP), native, from calf brain (natural protein, bovine (endogenous in calf brain), UniProt P20488 1-313, looked up)
chain: MLLLADMDVVNQLVAGGQFRVVKEPLGFVKVLQWVFAIFAFATCGSYSGELQLSVDCANKTKSDLNIEVEFEYPFRLHEVYFEAPTCQGDPKKIFLVGNYSSSAEFFVTVAVFAFLYSMGALATYIFLQNKYRENNKGPMLDFLATAVFAFMWLVSSSAWAKGLSDVKMATDPENIIKGMHVCHQPGNTCKELRDPVTSGLNTSVVFGFLNLVLWVGNLWFVFKETGWAAPFLRAPPGAPEKQPAPGDAYGQAGYGQGPGGYGPQDSYGPQGGYQPDYGQPASSGGGGYGPQGDYGQQGYGPQGAPTSFSNQM
notes: synaptophysin (SYP), bovine, native protein isolated from calf brain synaptic vesicles together with VAMP2; 4-pass integral membrane protein; Endogenous protein, co-purified with VAMP2 as a native complex; source: purified from calf brain synaptic vesicles (Triton X-100 extract with cholesterol; hydroxyapatite/celite flow through, anion exchange, size exclusion)
Question: B1 was tested. Which “stoichiometry N” value did it give?
Answer: Its value is 6.
